Test results: article doi:10.1101/266643 (bioRxiv, 2018)

Target: TrkA receptor (tropomyosin receptor kinase A) on NIH3T3-TrkA cells (UniProt P04629 33-796)
Sequence (P04629 33-796): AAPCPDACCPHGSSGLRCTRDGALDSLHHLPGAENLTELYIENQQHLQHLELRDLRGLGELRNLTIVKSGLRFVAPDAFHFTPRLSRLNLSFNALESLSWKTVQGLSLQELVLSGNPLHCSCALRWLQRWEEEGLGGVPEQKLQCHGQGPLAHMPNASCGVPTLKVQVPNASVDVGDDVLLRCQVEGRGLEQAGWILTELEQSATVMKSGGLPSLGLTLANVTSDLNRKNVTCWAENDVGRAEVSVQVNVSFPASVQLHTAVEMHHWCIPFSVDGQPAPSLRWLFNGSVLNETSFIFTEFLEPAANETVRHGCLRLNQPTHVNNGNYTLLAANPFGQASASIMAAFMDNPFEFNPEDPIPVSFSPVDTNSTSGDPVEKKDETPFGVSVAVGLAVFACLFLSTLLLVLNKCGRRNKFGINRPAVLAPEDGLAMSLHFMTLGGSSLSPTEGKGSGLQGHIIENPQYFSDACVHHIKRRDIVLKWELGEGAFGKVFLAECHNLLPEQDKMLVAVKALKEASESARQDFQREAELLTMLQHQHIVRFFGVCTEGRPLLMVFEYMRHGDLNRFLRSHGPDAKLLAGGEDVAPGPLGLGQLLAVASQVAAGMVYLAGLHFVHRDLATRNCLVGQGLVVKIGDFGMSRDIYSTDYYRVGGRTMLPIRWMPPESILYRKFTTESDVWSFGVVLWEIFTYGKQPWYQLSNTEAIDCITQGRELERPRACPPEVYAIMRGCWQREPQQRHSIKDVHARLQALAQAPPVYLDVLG

B1: wildtype nerve growth factor (wtNGF), monobiotinylated, with AviTag (ligand, mouse, UniProt P01139 122-241, looked up)
chain: SSTHPVFHMGEFSVCDSVSVWVGDKTTATDIKGKEVTVLAEVNINNSVFRQYFFETKCRASNPVESGCRGIDSKHWNSYCTTTHTFVKALTTDEKQAAWRFIRIDTACVCVLSRKATRRG
modifications: biotin on the AviTag (BirA co-expressed); conjugated to streptavidin-QD655 for the assays on cells
Kd: 2.27 nM

B2: NGF^R100W, mature form of the HSAN V mutant nerve growth factor, monobiotinylated, with AviTag (ligand)
chain: SSTHPVFHMGEFSVCDSVSVWVGDKTTATDIKGKEVTVLAEVNINNSVFRQYFFETKCRASNPVESGCRGIDSKHWNSYCTTTHTFVKALTTDEKQAAWWFIRIDTACVCVLSRKATRRGGGGLNDIFEAQKIEWHE
modifications: biotin on the AviTag (BirA co-expressed); conjugated to streptavidin-QD655 for the assays on cells
Kd: 2.79 nM
